The text below walks through data of the Immune Epitope Database (IEDB).

The term Kd denotes the constant that tells how readily two partners part at equilibrium.

The target of one assay is HLA-C*08:02. Nature of the assay: IEDB peptide-MHC binding, purified MHC/direct/fluorescence; filed as Kd, often an IC50 or EC50 that approximates it; ≥ and ≤ were set here for values at or beyond the usual limits of such assays.
Assay [1] addresses HLA-B*58:01. Nature of the assay: IEDB peptide-MHC binding, purified MHC/competitive/fluorescence; filed as Kd, often an IC50 or EC50 that approximates it; ≥ and ≤ were set here for values at or beyond the usual limits of such assays. The note with it: source organism: Escherichia coli APEC O1.
Assay [2] deals with HLA-A*01:01. The assay is described as above.
Assay [3] concerns the target HLA-A*26:01. Described as above. The settings on record: source organism: Escherichia coli APEC O1.
The target of another assay is HLA-C*15:02. Nature of the assay: IEDB peptide-MHC binding, purified MHC/direct/fluorescence; filed as Kd, often an IC50 or EC50 that approximates it; ≥ and ≤ were set here for values at or beyond the usual limits of such assays. The note with it: source organism: Yersinia pestis Nepal516.
The target in the next assay is HLA-C*03:03. Described as above. The note with it: source organism: Yersinia pestis Nepal516.
The target of the next assay is HLA-C*05:01. Described as above.
In the next assay the target is HLA-C*14:02. The description is as above. The settings on record: source organism: Yersinia pestis Nepal516.
For a further assay, the target named is HLA-C*06:02. The assay is described as above. The settings on record: source organism: Yersinia pestis Nepal516.
Assay [4] addresses HLA-B*08:01. Kind of assay: IEDB peptide-MHC binding, purified MHC/competitive/fluorescence; filed as Kd, often an IC50 or EC50 that approximates it; ≥ and ≤ were set here for values at or beyond the usual limits of such assays. The note with it: source organism: Yersinia pestis Nepal516.
Assay [5] concerns the target HLA-B*58:01. Nature of the assay: IEDB peptide-MHC binding, purified MHC/direct/fluorescence; filed as Kd, often an IC50 or EC50 that approximates it; ≥ and ≤ were set here for values at or beyond the usual limits of such assays.
The target of a further assay is HLA-B*40:01. Described as above.
For assay [6], the target named is HLA-B*15:01. The description is as above.
Assay [7] concerns the target HLA-A*01:01. Described as above.
Assay [8] addresses HLA-A*26:01. Described as above.
A further assay addresses HLA-A*30:02. Kind of assay: IEDB peptide-MHC binding, purified MHC/competitive/radioactivity; filed as Kd, often an IC50 or EC50 that approximates it; ≥ and ≤ were set here for values at or beyond the usual limits of such assays. The settings on record: source organism: SARS coronavirus Tor2.
The target of a further assay is HLA-A*24:02. The description is as above. The note with it: source organism: SARS coronavirus Tor2.
The target in the next assay is HLA-A*29:02. The assay is described as above. The note with it: source organism: SARS coronavirus Tor2.
A further assay deals with HLA-A*23:01. The description is as above. The settings on record: source organism: SARS coronavirus Tor2.
For another assay, the target named is HLA-A*24:03. Kind of assay: IEDB peptide-MHC binding, purified MHC/direct/fluorescence; filed as Kd, often an IC50 or EC50 that approximates it; ≥ and ≤ were set here for values at or beyond the usual limits of such assays. The settings on record: source organism: Pasteurella multocida.
The target in the next assay is HLA-B*07:02. The assay is described as above. The note with it: source organism: Pasteurella multocida.
In a further assay the target is HLA-A*69:01. Described as above. The note with it: source organism: Pasteurella multocida.
A further assay deals with HLA-A*31:01. The assay is described as above. The note with it: source organism: Pasteurella multocida.
The next assay concerns the target HLA-A*11:01. The description is as above. The note with it: source organism: Pasteurella multocida.
A further assay concerns the target HLA-A*03:01. Described as above. The note with it: source organism: Pasteurella multocida.
For assay [9], the target named is HLA-B*08:01. The assay is described as above. The note with it: source organism: Pasteurella multocida.
The next assay deals with HLA-B*27:05. The description is as above. The note with it: source organism: Pasteurella multocida.
The target of another assay is HLA-A*02:01. The assay is described as above. The note with it: source organism: Pasteurella multocida.
Assay [10] concerns the target HLA-A*02:11. Nature of the assay: IEDB peptide-MHC binding, purified MHC/competitive/fluorescence; filed as Kd, often an IC50 or EC50 that approximates it; ≥ and ≤ were set here for values at or beyond the usual limits of such assays. The note with it: source organism: Pasteurella multocida subsp. multocida str. Pm70.
The target in the next assay is HLA-A*02:03. The assay is described as above.
The target of a further assay is HLA-A*02:06. The description is as above.
The target of the next assay is HLA-A*02:12. Described as above. The settings on record: source organism: Pasteurella multocida subsp. multocida str. Pm70.
For assay [11], the target named is HLA-A*02:11. Nature of the assay: IEDB peptide-MHC binding, purified MHC/direct/fluorescence; filed as Kd, often an IC50 or EC50 that approximates it; ≥ and ≤ were set here for values at or beyond the usual limits of such assays. The note with it: source organism: Bacillus cereus NVH0597-99.
The target of another assay is HLA-B*39:01. Described as above. The note with it: source organism: Bacillus cereus NVH0597-99.
A further assay addresses HLA-B*15:09. Described as above. The note with it: source organism: Bacillus cereus NVH0597-99.
In another assay the target is HLA-A*30:01. Nature of the assay: IEDB peptide-MHC binding, purified MHC/competitive/fluorescence; filed as Kd, often an IC50 or EC50 that approximates it; ≥ and ≤ were set here for values at or beyond the usual limits of such assays. The note with it: source organism: Human immunodeficiency virus 1.
The target of a further assay is HLA-B*57:01. Described as above. The settings on record: source organism: Human immunodeficiency virus 1.
The target in assay [12] is HLA-B*15:01. The description is as above. The settings on record: source organism: Human immunodeficiency virus 1.
In another assay the target is HLA-A*26:02. The description is as above. The note with it: source organism: Human immunodeficiency virus 1.
Another assay addresses HLA-B*15:17. Described as above. The settings on record: source organism: Human immunodeficiency virus 1.
The target of another assay is HLA-B*18:01. The assay is described as above. The note with it: source organism: Human immunodeficiency virus 1.
Setting [13] is: source organism: Escherichia coli APEC O1.
The mark [14] stands for this setting: source organism: Pasteurella multocida.
Setting [15] is: source organism: Pasteurella multocida subsp. multocida str. Pm70.
[16] abbreviates: source organism: Human immunodeficiency virus 1.

As for YTTDVNQLY, the dissociation constant (Kd) with HLA-C*08:02 (setting [13]) was found to be 1010 nM; in the assay with HLA-B*58:01 [1], 36 nM; in the assay with HLA-A*01:01 [2] (setting [13]), 5.1 nM; with HLA-A*26:01 [3] it was 16 nM.
With YVIKKSSPL, the Kd in the assay with HLA-C*15:02 is 3950 nM; in the assay with HLA-C*03:03, 2 nM; with HLA-C*05:01 (source organism: Yersinia pestis Nepal516), no less than 20000 nM; with HLA-C*14:02 it was 163 nM; with HLA-C*06:02 it was no less than 20000 nM; in the assay with HLA-B*08:01 [4] it was 196 nM.
As to FADINGKLY, the Kd was 2250 nM with HLA-B*58:01 [5] (source organism: SARS-CoV1); no more than 1 nM in the assay with HLA-C*08:02 (source organism: SARS-CoV1); no less than 71300 nM in the assay with HLA-B*40:01 (source organism: SARS-CoV1); 3140 nM in the assay with HLA-B*15:01 [6] (source organism: SARS-CoV1); 191 nM with HLA-A*01:01 [7] (source organism: SARS-CoV1); 562 nM with HLA-A*26:01 [8] (source organism: SARS-CoV1). For the same sequence, the Kd with HLA-A*30:02 is 1600 nM; with HLA-A*24:02 it was no less than 77600 nM; in the assay with HLA-A*29:02 it was 17 nM; with HLA-A*23:01, no less than 77800 nM.
Take FFNVEIPEF: the Kd with HLA-C*05:01 (source organism: human gammaherpesvirus 4) was no less than 20000 nM.
For LMAEDLANV, the Kd with HLA-B*58:01 [5] (setting [14]) was no less than 20000 nM; with HLA-A*24:03 it was 11400 nM; in the assay with HLA-B*07:02, no less than 20000 nM; with HLA-A*69:01, 16.8 nM; with HLA-A*31:01 it was 2580 nM; with HLA-A*11:01, no less than 20000 nM. Besides, the Kd with HLA-A*03:01 was no less than 20000 nM; in the assay with HLA-B*40:01 (setting [14]) it was no less than 20000 nM; with HLA-B*15:01 [6] (setting [14]), 7690 nM; in the assay with HLA-A*01:01 [7] (setting [14]), no less than 20000 nM; in the assay with HLA-B*08:01 [9], no less than 20000 nM; with HLA-B*27:05 it was no less than 20000 nM. Moreover, the Kd is no less than 20000 nM with HLA-A*26:01 [8] (setting [14]); 47.2 nM with HLA-A*02:01; no more than 0.1 nM with HLA-A*02:11 [10]; no more than 0.1 nM in the assay with HLA-A*02:03 (setting [15]); no more than 0.1 nM with HLA-A*02:06 (setting [15]); no more than 0.1 nM with HLA-A*02:12.
Turning to YNDWEGNEL, the Kd with HLA-A*02:11 [11] is no less than 20000 nM; with HLA-B*39:01, 598 nM; with HLA-C*05:01 (source organism: Bacillus anthracis str. A0193), 95 nM; with HLA-B*15:09, 3920 nM.
For RSLYNTIATLY, the Kd was 722 nM in the assay with HLA-A*02:03 (setting [16]); no less than 20000 nM with HLA-A*30:01; no less than 20000 nM with HLA-A*02:06 (setting [16]); 128 nM with HLA-B*57:01; 103 nM with HLA-B*15:01 [12]; 1650 nM in the assay with HLA-A*01:01 [2] (setting [16]). Further, the Kd amounted to 921 nM in the assay with HLA-A*26:02, 0.7 nM with HLA-B*15:17 and 119 nM with HLA-B*18:01.
